Data reported in the NTF2 design screens of Basanta et al. (2020).

Assay: protease stability score; higher = more stable; yeast display proteolysis, trypsin and chymotrypsin;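 further: relative to predicted unfolded state with 0 unfolded-like and 1 meaning tenfold more protease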

Sequence | protease stability score
SEELELAKWLLEEWIRAVETGDERTLKELADPDVKMHIGDKNHIGWEEYVRFLRHLRITVRRMEVKHMHVFDGRIHIHGHFDIEINIGDKHLRRHHDVEIILVVVDGKLTSIEIRNH | 1.5
SEELRILVELVSKFYDAMKTGDEKTLKELADPNMRIIVGDKVLHGMESLKTHLKRIDHIYVHHFDYKKVDVQGDKVHVRGHSNLVLEFENHREEVIIHENWIVTKYNGRWSLESLEIR | 1.49
SEEMHWAKEFYKALLKSWRTGDEELIKDLMDPHVRLHYGDKELHGREEFVRFIQEHVSRVDHIDIHIDDMKLQGNKVHVDGIIIIHVNGRDINIRSEYIIYKVDGRWHLETVHIH | 1.59
SEENEAAKLVIEKLNHSWKTGDWRLSEKLMDPDVRVHINGQDLHGREQARKFLEEIRLHMRDVKVKEIRIVDGRLETHGHVHIELIFDGRVFRIERDVESVVLKFNGKWTLESLEVI | 1.21
SEENEHLHHLMRLVIEMFETGDEDRWYKLADPNTRMEVDGREFIGREEVIKFLRNLGVNHFWIDDVDIINGRAHIRSTLRFNGQERDLNINLHFVDGKLKREKWIIR | 0.841
SEENELAERFFKELRDHFETGDEDVLDEMADPNMKLHINGRNFHGMHVYSKLARWLVDHWRSEFKVRRIEVQGNKIIIDSQLTLHIDGQRIIHDTRMESEKVNGKWLLRQFIVV | 1.71
SEENEVIHRVIYYWIRAMKTGDEHLVSRLFDPNARHEIDGVDHVGWEEILKFFRRFDHLHHFHVNHIESHGDKIILDGRVDGEVNGQHLRFHVEIISLKVNGRWINQSEHVH | 1.81
SEEQDWLREALEIFEKTIHTGDEDTSKELADPHVRSIINGKDFVGMEIWTKILEELNKRYDHIELVFHKVENINGRVIIHGTDTIRVDGVERKIDTIIYARKVNGKWLSKSVEMR | 1.34
SEEQEEMRKLLKEFWHHTQTGDEDSFKRLADPDVKLRIDGKNYHGREATEFFTRRFDVIHDLRIHHMTIQGDWVRLEGTMHIEVGNYHDTKDVRIIILKYNGRWVNHEVRIH | 0.741
SEEQEHTREAMEVYLHLMHTGDWDRFRELVDPNVRMNINGVDLHGWEELTRFMEIFWRDLGFDHFKIHEMRIYGEKSHIRGESIIGDKSREVHIHVVIVNGRIKSEKFVET | 0.83
SEEQEITEHFSHLWLEWYLTGDFHKMLKFADPNTKMHIGDKHDHGMERYQEYERRFLEQYKGAKIYIKTVEHYDGRVVIDNIFRFDGREYQLIIEIIVVDGRLKSVHSDMK | 1.25
SEEQEKSEEFWRLVVEFLLTGDEHQILNLLDPNVLTEIGDKKYHGRELASEVLRRYADEIRLKEVELHDRDEVNGVLHLHTVVRGEYNGREINLESHWELEKVDGRWHIKRVEIR | 1.6
SEEQELLKKLAHENHESQRTGDEDFFHKLADPDARIRVGDKEIHGMEKVLEFWKTFRRQFKGLVVHLEDSHVINGQTFLHRNVNFNGVEEELEIILVVVDGRIKSIEIHLRRR | 0.653
SEEQENAERILRMWIHALETGDEHTQKRLLDPNVRDEVNGVEFHGRERAVKLMNDLHEELRIKDWIPRDIHLVNGVLILHVEVRLEVDGQSRNHEVIIVIKKVNGRWFIHRIHVR | 1.45
SEEQEVARDFFKILTHFHQTGNEEIVHELFDPNVRLHVGDKEVHGREEFIKVERELRTDDMHLRHVELQGEFIRIDVRAKGRVNGRDLEFHVHIVVRKVNGRWILTSLHIK | 0.446
SEEQHHLYSVFVRLIRNHWTGNERELHELADPNTRHTVGDKTYHGMEHVAWLLTEWVKEARLEIILRDVHVFDGRVESRIEFRLRYGDFKTTHEVRVEVNVVDGRLKEMEIDIN | 1.43
SEEQHHVEKVLWDFSHALMTGDWETVEDLVDPNVRIHINGKDFHGREEFHRLVREIRVHVEINLKSVEHIDGQATADTDVIVHLDVGDKQIDRRTRTEVIQQKFDGKWLIHTIIHR | 0.956
SEEQRLSEELFKRLVDYLLTGDWHSLKELLDPHVKVVVNGKEEIGRERMARHWLELHEKVPNMKSEFRLRYYEIQGDKAHYEVEIILHVNGRIRHIDIEVVMEKVDGRWMLHSITIR | 1.3
SEEQTRLEEETRLLIELLTTGNEEEWARMFDPHARVDLHIGDKTIHSIGRENISELVRLLRHWLGVNHNHSTQLRVIDGVSVLHTESKVGDKHSKVTWIFVIVDGRLKTMEIRVRID | 1.33
SEERAKKVAKKLMEAFVKGNKDDAKDALQEDVQLHIAGTTYHGPKAVEKLIEFWQRVGVEVKVQEVRVKGNHVEIQTQVHLGDNTTTVRYKIQVEGDKVKKLQLNFSEEVFKQAKDG | 2
SEERDHARRALNKMWKAIETGDEDTFEKLMDPDVRIEIGDKEIHGRELYVKIWQEMRFHIRRTRITDSKTFNGRVDIEFEEDFEIIVGDKIERYDYRVTFHSLKVNGRWEHSSMRLH | 0.202
SEEREDIREIIEILLHHIHTGDWREVTNLMDPNALLVYGDKIFIGREEFHKVIKRHSEEWRIHHVELKDIEVQGNKAHVDGRLDGEIDGRRVTLTTEIIAVKINGRWHVHEIVLK | 1.23
SEEREDSKKFLELVLTSWITGDWRQINKNFDPHARSHVGDKEIHGMDHVAHRMNEHLERADHIHFYLEDEHIQGNKIHVDGILQLVINGVDIRMRIRLVVLKINGRWQVHSIEIK | 1.14
SEEREEFEHWAKLVVHLLLTGNWEDFVKLLDPDTRFRDEDEETVGREEVEKAVNRLLDRVDHIKSVHIRHLDVINGRAFMHGQLVGHVDGRETHTEVRIKLVVVNGRIKSLQIDYK | 1.99
SEEREKAERISRTLFFNFFTGDEDDWNKRADPTDRFIIGDKELVGMEEISKFLKHLRVHHEQLSDLRINLQGDKLHSHLDGYVDIEFNGRRRRTRVIIIIVVFKVNGRWTIEQFEVEFH | 1.73

Sequence | protease stability score
SEERERVRKIHEWLVRFLETGDEESFNHLADPNMRLIVWYNGVNIVFIGRESWREFLRLFREEMRLHRIRVHHVDVQGEKVTSDTRNDGEVNGQRTEFETHVEVVLINGRLKLVLLEFK | 2.33
SEERHAVERYTEELARAISTGDEEKRLELLDPHVRYLQGDKHIHGRDEVWRHEHRQMEDLGVTRIEMRIRHIRIFNGRVEIEGEVRIGEFEMHFIIYVLKIDGRWIITQEEYS | 0.393
SEERHELERTLKRYQDALITGNEEQMEKLIDPNVRTRIDGVDLIGMELVIEELVEWLDRYPNVRIHSHIHEVRFQGDKADIDSRLHLIFDGQEYRLHTRIHIWKFNGRWVLTHSEID | 0.884
SEERHLEELMYKWVRQMIETGDEDLERKLADPHVRSDINGVDLHGREEMIKEIKRLEDWLGIDHREFKTITFINGRIHVHIKLNVNGKDIKSIHIYDVIDGRLKEVSVRFR | 1.19
SEERKELKDIADEIFERHLTGDWKTFLRLADPNVRLQVNGKDIHGREEVVRWLNEIRYHHLTIHDRTVVDGVVISDVEEDGQVNGQKSRYRVHYVFVVVDGRFKSIHVTIT | 1.3
SEERSRVLHYLSLFIHFLETGDWKALYELMDPDVRIHVGDFELHGRHIFVRHLRDLGIKHVEESIRVRRMILIDGVIHMDGHLERHLIVGDKRVDERHEVHEVILKVDGKWFVHSIHVK | 1.14
SEESEHEEIIAEVTLELLATGDWRTLYELFDPNVRVHVGDKRSIGREQFVKIWKEFLEKFKNVVYKFKDIKWINGVVHIHMTLEYNGRRIEVNIHNFVYDGKIEHIHIEFKHL | 1.66
SEESEKLERMMRLIMHLLWTGDEETFKRLADPDTRFIYGDFEVHGREDVSRMWIKLLNELRIHSLHVEEVHTIDGRIHAKTEVDGRYNGQHERTKLELIIVIINGRIHTVEIRPK | 1.22
SEETEETERVEREISHARLTGDEQFLKEMLDPNTRLLINGVILVGREALEHFVREMRVERVEVKDVRVQGDKLHIDTTSDVHYNGRRWTIKTHLIMVKVDGRWLMESVEFK | 1.62
SEETEFAKEMLDIIFNLLRTGDWEYLVRLMDPHVRVIYGDKVTHGRDIIQYMHEHIRIRHLEFRHFDVIGDKINVDGRMEGEVNGRHDKTEMHIILLKINGRWSLHSIEIR | 1.39
SEETEHIQKVMKDYIELVLTGDEEKWIHLADPHTRLILLFDGKEIHTHGWDRLIKVWQRIMEELGVDKVEIRMERVRSYGDKAESDVESRYNGRTHETEVTILVIDGRIKMVEVRFH | 1.14
SEETEIIERAMKILLEILETGDEDRQRELMDPHYRLLIGDKVFHGREWAIKWAREIRVDRVELEDREIQGEKLLLHGHIHIRVGDKHHTMEVLIIVEKIDGRWRTHSRHVK | 0.651
SEETEYLRLAIELILNETRTGDEHTFMENADPDAKLNFNGVHLHGMEEVTRRMHELWEELRIRHFELHDVSHVDGRLYVHIRLDVDVNGQKRTFRSEIVSEKINGKWYYKYMTIV | 1.27
SEETKEKHDFVEEWRHFLETGDEHELTRMIDPNVRVIINGQEHHGREAFEEMLKRIDVIHHVVIRKERSINGVIRLNFEVDGVINGRRHRTEFHIIVLKINGRWLIHQISIH | 2.04
SEETKNLEHWAKRFEHALETGDEEVLTKLFDPNVRLHFNGVNIHGWELYRKYHQRVDHVHFRIRSVHVYDGRVDMHTEVENRQGDKSHRMDTRLFAIKVNGVWLIESFEVH | 0.486
SEEVEEAVTKMRHIWEHFLTGDEDTLKELVDPTVRLEQGDKEYHGRDFYIKYSEHIRRRFKNLKIIERDMKFTVYNGKAQMQFDGELRVGDKSTEVVIFLHMRKIDGRWFIEAERIEIR | 1.38
SEEVEHAEKVMRHTVHNIETGDEETWSNLADPNVLFQQGEFNLHGRELMFEWVRKYYEKIKNARIEIEDVRVFDGQIEFDVTWRVGDKHLKVHLHIEVINGRITEVRVDEK | 0.98
SEEYENAEKLTHHLTEILQTGDEQKLHELVDPHVKIHVDGVELHGMERYQELVDHWRIDSHTLHDFKIIGDKARVDSRVILTIGDKKERISLRFILVKIDGQWLNHEVEFN | 1.79
SEEYKRVKHMFDLWLHALITGDEDLMEELADPHVRHDINGVKNHGWETLIDREREWRIKRIDHRRSDAVNGRMHSDVHIDGIFDGKRHETDVTIHMIVVNGKFKTVEIRYH | 1.08
SEFDEASREAHEWFVELSKTGDEHEVKKFFDPNMRIDWNGVELIGRDTASKFFHELRFEHVRMEDVKFIDGVLRLDSHSIVNVNGQRFETRDDIVIEKFNGQWILKSIRVE | 1
SEFDRLSKEAVDILVHSLETGDWRSVSELFDPDYRLDVGDKRYHGREKVNEFMRHMGIKHVEIKRIHLQGDKAHIDSRMLVDGREFITHVIMEKVNGRWVITHISIE | 1.01
SEFEEALKEHVKNIIRSVRTGDENELRRQLDPDAKLRINGQDYVGMEYVFHYLFEWRIHDTELKHIHVQGDKLTFNGETTGTYDGQKIHVRIRIIIWKVDGRWLSEHIDVI | 1.66
SEFEEIAHIMIRLFHHAMRTGDEHKLMKNFDPNTRIDVNGVEEHGRENLERHLHHLSRHLRVNDFKVKDVKDVDGRVVIDGIWNGEINGQETDVEVEVIIIKINGQWYIQHLKIK | 1.03
SEFEHRAHEVLEIMSNALHTGDEERMQKLMDPNVRIVIGDKENIGRETFMYWVKEIRFEIEIHIHRIDVINGRIHADTRLRIIIHYNGREHRDHFDVHFDIQKVDGRWVVHRIIVD | 2.1
SEFEKDSEHAARVLMHELHTGDFESLHELADPNDRNSLHIGDKHWFDHGRHWVRKWFERFKNATLIVEDIRLDVQGDKVRMEVDGHLNINGKHYRVHLIFILRKINGKWHVQQVDIHVD | 2.41
